For two substances, Kd, koff and kon results are on record in US20170248602A1.

The target in assay [1] is SNAP-25 peptide comprising amino acids 134-206 of SEQ ID NO:5 (human). The assay can be described thus: SPR (BIAcore 3000), peptide on CM5 chip, 1:1 fit. (In general: In SPR one partner is held on a chip, and binding of the other changes the refractive index at the surface.)
The target in assay [2] is SNAP-25 peptide comprising amino acids 134-197 of SEQ ID NO:5 (human). The assay can be described thus: SPR (BIAcore 3000), peptide on CM5 chip, 1:1 fit.

In assay [1], “MC-6050 mouse α-SNAP-25 monoclonal antibody (Research & Diagnostic Antibodies)” registered a Kd of 19800 nM, a koff of 0.00607 s⁻¹ and a kon of 306 M⁻¹ s⁻¹. In assay [2], this substance showed a Kd of 0.497 nM, a koff of 0.000882 s⁻¹ and a kon of 1.78e+06 M⁻¹ s⁻¹.
In assay [1], “MC-6053 mouse α-SNAP-25 monoclonal antibody (Research & Diagnostic Antibodies)” returned a Kd of 240 nM and a koff of 2.56e-05 s⁻¹. In assay [2], this substance had a Kd of 0.508 nM, a koff of 0.00118 s⁻¹ and a kon of 2.32e+06 M⁻¹ s⁻¹.

A word on the Kd: it is the free concentration of one partner at which half of the binding sites on the other are occupied at equilibrium, for simple one-to-one binding. The low end stands for higher affinity, the high end for lower affinity. Usually koff stands for a measure of how fast the partners let go of each other. Low readings indicate slow dissociation, high ones fast dissociation. A word on the kon: it is the rate constant with which the complex forms. A higher kon goes with faster complex formation.
